Our source for the binding result and Kd values is PMC7192620.

The target in one data set is T1, RBM3 (UniProt P98179 1-157).
T1 sequence: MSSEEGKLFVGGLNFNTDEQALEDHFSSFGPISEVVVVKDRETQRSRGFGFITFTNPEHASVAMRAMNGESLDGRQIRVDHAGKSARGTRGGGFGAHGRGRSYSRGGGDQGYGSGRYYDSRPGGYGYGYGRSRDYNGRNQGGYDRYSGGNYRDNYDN
The data set can be described thus: ELONA titration.

The target of a further data set is YBX1 (YB-1) (UniProt P67809 1-324). The data set can be described thus: ELONA titration.
YBX1 (YB-1), sequence (P67809 whole entry): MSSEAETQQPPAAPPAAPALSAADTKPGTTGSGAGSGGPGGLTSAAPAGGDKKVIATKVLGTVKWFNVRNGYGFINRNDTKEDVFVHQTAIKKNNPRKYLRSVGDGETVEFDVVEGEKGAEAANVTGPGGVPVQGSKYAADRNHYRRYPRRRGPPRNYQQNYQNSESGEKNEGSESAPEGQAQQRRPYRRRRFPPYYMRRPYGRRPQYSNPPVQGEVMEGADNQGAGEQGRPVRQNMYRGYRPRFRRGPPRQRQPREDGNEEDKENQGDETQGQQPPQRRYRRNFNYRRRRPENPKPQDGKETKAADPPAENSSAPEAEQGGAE

B1: Sequence 7 RC (ssDNA)
DNA: TCGTCGGCAGCGTCAGATGTGTATAAGAGACAGAGAGACAAAACAGAATCCCCCCCCCCAATTAAGTAACGTACTGCAGTCATGCTAG
modifications: 5' biotin (5Biosg)
For the molecule B1, the binding result in the data set with RBM3 is on record as “no binding”.

B2: Sequence 7 (ssDNA)
DNA: CTAGCATGACTGCAGTACGTTACTTAATTGGGGGGGGGGATTCTGTTTTGTCTCTCTGTCTCTTATACACATCTGACGCTGCCGACGA
modifications: 5' biotin (5Biosg)
For the molecule B2, the Kd (commonly the concentration at which binding is half-saturated) in the data set with YBX1 (YB-1) is about 3 nM.
